Experimental data taken from patent US20190248902A1 (published 2019).

T1: human ASGR-1 (wild type) (human, UniProt P07306 1-291)
T1 construct: also called wt ASGR1; huASGR-1
T1 sequence: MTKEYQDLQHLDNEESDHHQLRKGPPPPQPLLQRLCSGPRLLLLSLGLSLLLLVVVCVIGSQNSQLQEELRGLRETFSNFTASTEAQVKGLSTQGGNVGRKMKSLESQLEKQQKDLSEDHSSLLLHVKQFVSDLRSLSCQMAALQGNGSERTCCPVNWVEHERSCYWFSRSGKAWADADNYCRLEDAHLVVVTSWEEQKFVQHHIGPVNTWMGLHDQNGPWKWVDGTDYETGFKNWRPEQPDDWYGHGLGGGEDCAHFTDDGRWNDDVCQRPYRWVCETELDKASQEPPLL

T2: human ASGR-1 mutant construct H203 (human, UniProt P07306 1-291)
T2 construct: Arg/Glu scanning: non-arginine residues were changed to arginine; Transiently expressed on CHO-S cells
T2 sequence: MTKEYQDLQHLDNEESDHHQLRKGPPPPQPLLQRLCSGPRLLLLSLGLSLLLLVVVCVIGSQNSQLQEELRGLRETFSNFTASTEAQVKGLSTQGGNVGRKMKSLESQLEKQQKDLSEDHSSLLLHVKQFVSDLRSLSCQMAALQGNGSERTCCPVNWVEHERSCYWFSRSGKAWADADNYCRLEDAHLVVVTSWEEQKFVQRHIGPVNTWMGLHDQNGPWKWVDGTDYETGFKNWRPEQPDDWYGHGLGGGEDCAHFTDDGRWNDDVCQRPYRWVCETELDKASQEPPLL

T3: soluble human ASGR-1 carbohydrate binding domain (CBD; amino acid residues 154-281; N-terminal 6xHis tag) (human, UniProt P07306 154-281)
T3 construct: also called ASGR-1 CBD
T3 sequence: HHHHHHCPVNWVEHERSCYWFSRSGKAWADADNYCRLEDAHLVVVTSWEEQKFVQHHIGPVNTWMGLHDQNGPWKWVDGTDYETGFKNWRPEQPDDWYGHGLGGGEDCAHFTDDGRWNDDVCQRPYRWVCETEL


Experiments:
[1] = molecular target: T1, human ASGR-1 (wild type); test: flow cytometry, CHO-S:huASGR-1 cells, 11-point titration
Experimental: CHO—S stable high-expressing cell line were developed for both human ASGR-1 as well as mouse ASGR-1. A typical 384 well plate multiplex flow cytometery-based cell binding method is described as followed: Parental CHO—S cells and CHO—S:huASGR-1 cells were respectively labeled using a CellTrace CFSE Cell Proliferation Kit (ThermoFisher Catalog #C34554) and CellTrace Violet Cell Proliferation Kit (ThermoFisher Catalog#C34557) CHO—S:muASGR-1 were not labeled. 20 ul of cells at 4C were added to duplicate wells of the 384 well plate. The cells were equally mixed from all three cell lines (30K cells/well). Then 20 ul of the ASGR-1 antibodies (either purified from hybridoma supernatants or made recombinantly) were added in an 11-point dose response using a 1:2 fold serial dilution starting at 100 nM. The cells and antibodies were incubated for 30 min at 4C and then spun down and washed twice with FACS buffer containing 1 mM CaCl2. 30 ul of anti-hulgG-APC secondary antibodies were then added at a 1:1000 dilution) for 30 min at 4C and then washed once with the same buffer. 60 ul of PI (1:1000) was added and then the cells were read by a core flow cytometry facility. The cells were gated first for live cells, then for single cells and finally for the cell dyes to separate the mixed cells into the three different cell populations. Histograms of signal vs count representing the binding profile of each antibody at each antibody concentration were automatically analyzed for the median of the binding signal and then a binding graph was made with log 10 antibody concentration in nM on the X axis with […] from the duplicate wells on the Y-axis. The binding curves were fit with a standard four parameter sigmoidal binding curve and EC50's reported for all graphs with full curves.

[2] = molecular target: T1, human ASGR-1 (wild type); test: FACS ratio: 65C12 geomean / this mAb geomean
In short: (§1)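 CHO-S cells transiently expressing wild-type or point-mutant hASGR-1 were stained with antibody at 5 ug/ml for 1 h at 4 °C. Bound antibody was detected by Fc-specific Alexa 647 secondary plus 7-AAD and read by flow cytometry. Ratio is 65C12 geomean divided by test mAb geomean, normalizing for expression.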

[3] = molecular target: T2, human ASGR-1 mutant construct H203; test: FACS ratio: 65C12 geomean / this mAb geomean
In short: as §1

[4] = molecular target: T1, human ASGR-1 (wild type); test: FACS, transfected CHO-S cells, mAb 5 ug/ml
In short: (§2)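 Transiently transfected CHO-S cells expressing wild-type or mutant hASGR-1 incubated with antibody at 5 ug/ml, 1 h at 4 °C; bound antibody detected by Alexa Fluor 647 anti-Fc plus 7-AAD, by flow cytometry. Binding normalized to expression using an unaffected antibody (65C12), then to wild type; hits defined as >3× IQR above third quartile.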

[5] = molecular target: T2, human ASGR-1 mutant construct H203; test: FACS, transfected CHO-S cells, mAb 5 ug/ml
In short: as §2

[6] = molecular target: T2, human ASGR-1 mutant construct H203; test: FACS ratio: H203 normalized value / wt normalized value
In short: as §2

[7] = molecular target: T3, soluble human ASGR-1 carbohydrate …; test: Octet BLI, mAb on AR2G tips, 1:1 fit
Description: To quantitate the binding affinity of specific antibodies for ASGR-1 (either purified from hybridoma supernatants or made recombinantly), association and dissociation rates can be measured using a ForteBio Octet instrument. […] Experimental kinetic results were globally fit to a 1:1 binding model in order to determine the association and dissociation rate constants as well as the equilibrium dissociation constant. Association and dissociation times were chosen to ensure that curvature was present during association curves and measured dissociation levels dropped at least 5% from starting levels. All Octet buffers contained 10 mM Tris (pH7.5), 150 mM NaCl, 1 mM CaCl₂), 0.10 mg/ml BSA and 0.13% Triton X-100. Octet assays were run at 27° C. Because this assay only measures binding to the ASGR-1 CBD, antibodies that recognize epitopes partially or entirely outside the CBD and/or recognize ASGR-1 in the context of a native ASGR complex, for example, as could occur on cell membranes, may not score as positive in this assay.

Binder	EC50 [1] [nM]	Expression Normalization to mAb 65C12 [2]	Expression Normalization to mAb 65C12 [3]	FACS Binding Geomean [4]	FACS Binding Geomean [5]	Normalization to wt ASGR1 Binding [6]	Kd [7] [nM]
4B1 (antibody, V domains shown, mAb) VH: QVQLQESGPGLVKPSETLSLTCSVSGDSISSYSWSWIRQPAGKGLEWIGRIYTSGSTNYIPSLKSRITMSVDTSKKQFSLKLSSVTAADTAVYYCARDLKSSGCLFFDYWGQGTLVTVSS VL: DIQMTQSPSSLSASVGDRVTITCRASHTIRTYLNWYQQKPGKAPKLLIYAASSLQSGVPSRINGSGSGTDFTLTITNLQPEDFATYYCQQSYNISFTFGPGTKVDIK	4.1	–	–	–	–	–	–
12D2 (antibody, V domains shown, mAb) VH: EVQLVESGGGLVKPGGSLRLSCAASGFTFSSYSMNWVRQAPGKGLEWVSSISSSSSYIYYADSVKGRFTISRDNAKNSLYLQMNSLRAEDTAVYYCARLGDYWGQGTLVAVSS VL: not shown	3.2	–	–	–	–	–	–
7F4 (antibody, V domains shown, mAb) VH: QLQLQESGPGLVKPSETLSLTCTVSGGSISRSSYYWGWIRQPPGKGLEWIGNIYYSGATYYNPSLKSRVTISVDTSTNQFSLKLSSVTAADTAVYYCARHSGSWSLDYWGQGTLVTVSS VL: DIQMTQSPSSLSASVGDRVTITCRTSQGIRNDLGWYQQKPGKAPKRLIYAASNLQSGVPSRFSGSGSGTEFTLTISSLQPEDFATYYCLQHSAYPLTFGGGTKVEIK	5.4	–	–	–	–	–	1.2
54E9 (antibody, V domains shown, mAb) VH: QVQLVQSGAEVKKPGASVKVSCKASGYTFNSYGISWVRLAPGQGLEWMGWISAYNGNTKNAQKLQGRVTMTTDTSTSTAYMELRSLRSDDTAVYYCARHDFWSGYYKGMDVWGQGTTVTVSS VL: not shown	5	1.45	1.68	38600	15300	1.16	–
65C12 (antibody, V domains shown, mAb) VH: EVQLVESGGGLVKPGGSLRLSCAASGFTFRSFSLNWVRQAPGKGLEWVSSISSSSSYIYYADSVKGRFTISRDNAKNSLYLQMNSLRAEDTAVYYCARDAYSHYWGQGTLVTVSS VL: EIVMTQSPATLSVFPGEGATLSCRASQSVSINLAWYQQKPGQAPRLLIYGASTRATGIPARFNASGSGTEFTLSISSLQSENFAVYYCQQYNTWPLTFGGGTKVEIK	–	1	1	56100	25800	1	–

The remaining lines, values ahead:

EC50 [1] [nM]	Expression Normalization to mAb 65C12 [2]	Expression Normalization to mAb 65C12 [3]	FACS Binding Geomean [4]	FACS Binding Geomean [5]	Normalization to wt ASGR1 Binding [6]	Kd [7] [nM]	Binder
0.14	3.32	3.61	16900	7140	1.09	–	198D2 (antibody, V domains shown, mAb) VH: QVQLVESGGGVVQPGRSLRLSCAASGFTFRSYGMHWVRQAPGKGLEWVAVIIYDGSYKYYADSVKGRFTISRDNSKNTLYLQMNSLRAEDTAVYYCARTYSGGMDVWGQGTTVTVSS VL: QSVLTQPPSVSAAPGQKVTISCSGSSSNIGSNYVSWYQQLPGTAPKVLIYDNNKRPSGIPDRFSGSKSGTSATLGITGLQTGDEADYYCGTWDSRLNVGVFGGGTKLTVL
1.7	–	–	–	–	–	4.8	4H6 (antibody, V domains shown, mAb) VH: QVQLVQSGAEVKKPGASVKVSCKASGYTFTDYYLHWVRQAPGQGLEWMGWIHPNSGGTNYAQKFQGRVTMTRDTSISTAYMGLSSLRSDDTAVYYCARDGTSSFDYWGQGTLVTVSS VL: DIQMTQSPSSVSASVGDRVTITCRASQGISRWLAWYQQKPGKAPKLLIYGASSLQSGVPSRFSGSGSGTDFTLTISSLQPEDFAIYYCQQANSFPFTFGPGTKVDIK
0.8	2.26	2.06	24800	12500	0.913	–	202A3 (antibody, V domains shown, mAb) VH: QVQLEQSGAEVKKPGASVKVSCKASGYTFTSYDINWVRQATGQGLEWLGWMNPKRGNTGYAQKFQGRVTMTRNTSISTAHMELSSLRSEDTAVYYCARGRYSREDYYYYYDMDVWGQGTTVTVSS VL: DIQMSQSPSSLSASVGDRVTITCRASQGIRNDLGWYQQKPGKAPKRLICAASRLQSGVPSRFSGSGSGTEFTLTISSLQPEDFAIYYCLQHHDYPFTFGPGTKVDIK
